Experimental data reported in patent US20180002425A1 (Scripps Research, published 2018).
Blank lines part the entries; values can stand above or below the binder they belong to.

Tests used:
[1] = target: T1, wild-type human TpoR on Ba/F3-hMpl cells (human, UniProt P40238 26-635); assay: cell-based or functional assay
T1 sequence (looked up): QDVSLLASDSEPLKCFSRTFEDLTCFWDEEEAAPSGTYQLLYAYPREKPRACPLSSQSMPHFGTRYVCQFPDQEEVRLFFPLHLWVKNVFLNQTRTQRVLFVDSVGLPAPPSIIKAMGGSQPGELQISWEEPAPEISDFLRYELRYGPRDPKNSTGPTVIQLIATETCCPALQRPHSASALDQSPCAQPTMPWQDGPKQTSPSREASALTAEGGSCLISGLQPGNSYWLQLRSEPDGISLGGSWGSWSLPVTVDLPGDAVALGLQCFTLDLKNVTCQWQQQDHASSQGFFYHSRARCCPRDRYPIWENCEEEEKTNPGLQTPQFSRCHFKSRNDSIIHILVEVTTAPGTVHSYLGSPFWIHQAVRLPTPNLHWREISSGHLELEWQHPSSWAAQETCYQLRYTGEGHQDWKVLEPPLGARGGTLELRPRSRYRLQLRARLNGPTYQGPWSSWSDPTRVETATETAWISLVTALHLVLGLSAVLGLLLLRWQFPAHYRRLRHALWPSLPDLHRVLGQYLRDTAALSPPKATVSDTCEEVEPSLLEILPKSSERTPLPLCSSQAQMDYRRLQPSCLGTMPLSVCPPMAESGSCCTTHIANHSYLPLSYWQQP

[2] = target: T2, TpoR-IL6ST chimeric receptor on HEK293T SIE-bla reporter cells (clone CR2-9) (human, UniProt P40238 26-527; P40189 651-918, limits assumed); assay: cell-based or functional assay
T2 sequence (looked up): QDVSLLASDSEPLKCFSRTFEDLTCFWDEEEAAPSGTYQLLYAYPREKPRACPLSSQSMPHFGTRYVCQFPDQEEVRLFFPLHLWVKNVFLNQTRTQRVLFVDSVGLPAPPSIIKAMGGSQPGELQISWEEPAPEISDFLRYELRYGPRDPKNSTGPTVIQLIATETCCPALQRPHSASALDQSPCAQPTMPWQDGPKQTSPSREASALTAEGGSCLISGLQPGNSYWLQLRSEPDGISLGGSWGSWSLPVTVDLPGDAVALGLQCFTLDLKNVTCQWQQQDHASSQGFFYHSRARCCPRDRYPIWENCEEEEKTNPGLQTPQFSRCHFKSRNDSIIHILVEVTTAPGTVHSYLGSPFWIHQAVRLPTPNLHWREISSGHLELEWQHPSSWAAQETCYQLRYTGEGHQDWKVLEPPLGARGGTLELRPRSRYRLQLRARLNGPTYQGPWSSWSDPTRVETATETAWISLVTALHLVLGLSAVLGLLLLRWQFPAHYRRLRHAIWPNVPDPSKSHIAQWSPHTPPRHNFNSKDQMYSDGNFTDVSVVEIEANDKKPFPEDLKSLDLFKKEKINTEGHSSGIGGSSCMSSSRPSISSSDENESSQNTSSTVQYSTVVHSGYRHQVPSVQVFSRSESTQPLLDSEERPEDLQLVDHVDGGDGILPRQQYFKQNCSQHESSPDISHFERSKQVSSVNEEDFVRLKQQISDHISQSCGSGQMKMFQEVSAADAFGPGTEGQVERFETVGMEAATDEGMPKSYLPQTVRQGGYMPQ

[3] = target: T3, extracellular domain of hEpoR-his tag (human, UniProt P19235 25-250); assay: pull-down: antibody mixed with hEpoR extracellular domain-his tag, captured on His-tag Dynabeads, bound antibody detected with anti-Fc:HRP (OD405nm); control is beads without EpoR
T3 construct: extracellular domain; also called EpoR ECD-his tag monomer protein; His-tagged monomeric EpoR; not shown: His tag
T3 sequence (looked up): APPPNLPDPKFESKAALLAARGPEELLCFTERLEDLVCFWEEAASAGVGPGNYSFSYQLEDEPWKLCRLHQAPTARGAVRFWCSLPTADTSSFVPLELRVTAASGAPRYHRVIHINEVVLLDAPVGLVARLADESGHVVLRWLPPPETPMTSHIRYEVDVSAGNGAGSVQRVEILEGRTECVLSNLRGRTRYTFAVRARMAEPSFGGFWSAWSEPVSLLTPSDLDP
Protocol: The single antibodies V-1 and V-3 and the bispecific antibody V-1/V-3 (BsAb) that were generated using “Knob-into-ole” technology were purified from HEK293F cells. (A) The purified proteins were analyzed using 7% Tris-Acetate gels with TA running buffer. (B) Antibody binding to the EpoR was tested by a “pull down” experiment. Different antibodies were mixed with the extracellular domain of hEpoR-his tag. The complexes were captured with His-tag Dynabeads and bound antibodies were detected with an anti-Fc:HRP antibody.

[4] = target: T3, extracellular domain of hEpoR-his tag; assay: BLI (Octet Red), scFv-Fc captured on anti-human IgG sensors, EpoR ectodomain monomer titrated, 1:1 model; V-3; competed by EPO
Protocol: (§1) Kinetic characterization using bio-layer interferometry (BLI). Experiments were performed using the Octet Red (Fortebio Inc.). The scFv Fc fusion proteins were captured with anti-Human IgG Capture (AHC) Biosensors (kinetics grade Cat# 18-5060). A titration series of the purified EpoR ectodomain monomer protein was measured against the immobilized scFv Fc in the association/dissociation cycle. The data set was fit to a 1:1 binding model to determine ka, kd and Kd.
(§2) Thus, both EPO and the bispecific antibody achieve the obligatory asymmetric binding to the EpoR that is necessary for full agonist activity, albeit in different ways. In the case of EPO, asymmetry is achieved by the use of two distinct interfaces (site 1 and site 2) that bind with different affinities to a single site in the homodimeric EpoR (Watowich, J. Invest. Med. 59:1067, 2011). By contrast, the heterodimeric bispecific antibody achieves asymmetry by using its two different binding specifies to interact with different sites on the EpoR (FIG. 6).

[5] = target: T3, extracellular domain of hEpoR-his tag; assay: BLI (Octet Red), scFv-Fc captured on anti-human IgG sensors, EpoR ectodomain monomer titrated, 1:1 model; V-1; not competed by EPO
Protocol: as §1, §2

EC50, long-term proliferation assay (MTS) of Ba/F3-hMPL cells [1]: 0.005 nM
EC50, short-term fluorescence (FRET beta-lactamase) reporter assay [2]: ~0.01 nM
B1: 3D9 TpoR agonist antibody (Fc fusion, not shown: a dimerising Fc or GST)
scFv: MAQVQLVQSGAEVRKVGSSVKVSCKASRDTFNTYGISWVRQAPGQGLEWMGGIIPIFGTADYAQKFRGRVTITADESTSTAYMELSSLRSEDTAVYYCARDRKLGGSDYWGQGTLVTVSSGGGGSGGGGSGGGGSDIVMTQSPSSVSASVGDKVTITCRASQGLGRWLAWYQQEPGKAPKLLIYAASTLQRGVPSRFSGSGSGTDFTLTISSLQPEDFATYYCQQSNSFPWTFGQGTKLEIKR

binding result [3]: binds
B2: heterodimeric bispecific antibody V-1/V-3 (bispecific antibody, V domains shown)
VH 1: MAQVQLVQSGAEVKKPGSSVKVSCKASGGTFSSYAISWVRQAPGQGLEWMGGIIPIFGTANYAQKFQGRVTITADESTSTAYMELSSLRSEDTAVYYCARDQGYYYGSGGLDYWGQGTLVTVSS
VL 1: DIQMTQSPSSLSASVGDRVTITCRASQSISSYLNWYQQKPGKAPKLLIYAASSLQSGVPSRFSGSGSGTDFTLTISSLQPEDFATYYCLQDYNYPLTFGGGTKVEIK
VH 2: MAQVQLVQSGAEVKKPGASVKVSCKASGYTFTSYGISWVRQAPGQGLEWMGWISAYNGNTNYAQKLQGRVTMTTDTSTSTAYMELRSLRSDDTAVYYCARGVAAALSYWGQGTLVTVSS
VL 2: QSALTQPASVSGSPGQSITISCTGTSSDVGAYNYVSWYQQHPGKAPKLMIYEVTKRPSGVPDRFSGSKSGNTASLTISGLQAEDEADYYCISFTASSTWAFGGGTKLTVLG
notes: Heterodimer of two scFv-Fc chains (human IgG1 Fc, hinge to CH3) made by knobs-into-hole engineering: T366Y in the CH3 of one monomer and Y407T in the other; also called BsAb; bispecific heterodimeric antibody

Kd [4]: 45 nM
B3: EpoR antibody V-3 (scFv-Fc homodimer) (Fc fusion)
VH: B2 VH 2
VL: B2 VL 2

Kd [5]: 26 nM
B4: EpoR antibody V-1 (scFv-Fc homodimer) (Fc fusion)
VH: B2 VH 1
VL: B2 VL 1
